Test results taken from paper PMC7222171 (Cellular and Molecular Immunology, 2020).

B1: AR3C double Cys mutant (double amino-acid substitution in the CX4C motif) (antibody, V domains shown)
VH: VQLLEQSGAEVKKPGSSVKVSCETSGGTFDNYALNWVRQAPGQGLEWIGGVVPLFGTTRNAQKFQGRVTISDDKSTGTGHMELRSLRSEDTAVYYCVRSVTPRYAGGGFAYGEFDYWGQGTLVTVSS
VL: EIELTQSPATLSVSPGERATLSCRASQSVSSNLAWYQQKPGQAPRLLIYGASTRATGIPARFSGSGSGTEFTLTVSRLEPEDSAVYFCQQYYRSPLTFGGGTKVEIK
B2: 8D6 double Cys to Ala mutant (C104A, C109A) (antibody, V domains shown)
VH: QVQLVQSGSELKKPGASLKLSCKASGYTYITPAMNWVRQAPGHGLEWMGGINTNTGNPTYAQGFAGRFVFSWDTSVSTAYLHISSLKTEDTAVYYCADTRIFSARRGTAYGGFDVWGQGTMVTVSS
VL: DIQMTQSPSSLSASVGDRITITCRASQSISNFLNWFQHRPGKAPKLLIYGATILQSGVPSRFSGSGSGTDFTLTISSLQPEDFATYYCQQSDSSTYIFGQGTKVEIK

Target: Con1 E2 soluble fragment, amino acids 384–661 (wild type) (Hepatitis C virus genotype 1b, Con1, UniProt Q9WMX2)
Sequence (Q9WMX2 384-661): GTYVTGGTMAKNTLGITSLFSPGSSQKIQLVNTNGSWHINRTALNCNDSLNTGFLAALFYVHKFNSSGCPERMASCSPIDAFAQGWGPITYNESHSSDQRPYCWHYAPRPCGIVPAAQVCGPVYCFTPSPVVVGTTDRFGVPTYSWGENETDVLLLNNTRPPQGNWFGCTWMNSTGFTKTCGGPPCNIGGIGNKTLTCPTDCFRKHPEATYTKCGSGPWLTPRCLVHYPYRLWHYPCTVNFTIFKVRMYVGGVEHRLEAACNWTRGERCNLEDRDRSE
Experiment: ELISA

Binder	binding result
B1	binds
B2	binds
